# Assay results reported in article PMC12154015, “A Novel Approach for the Activity Assessment of L-Asparaginase Formulations When Dealing with Complex Biological Samples” (International Journal of Molecular Sciences, 2025).
# Key:
# Assay in all cases: purified protein
# [1] = substrate: NC(=O)C[C@H](N)C(=O)O; conditions: PBS 0.01 M, pH 7.4, 37 °C, [S]0 = 10 mM
# [2] = substrate: Cc1cc(=O)oc2cc(NC(=O)C[C@H](N)C(=O)O)ccc12; type: biochemical, Escherichia coli; conditions: 37 °C, pH 7.4, table heading says in bovine serum, [S]0 = 1 mM
# [3] = substrate: Cc1cc(=O)oc2cc(NC(=O)C[C@H](N)C(=O)O)ccc12; type: biochemical, Rhodospirillum rubrum; conditions: 37 °C, pH 7.4, table heading says in bovine serum, [S]0 = 1 mM
# [4] = substrate: NC(=O)C[C@H](N)C(=O)O; type: biochemical, Rhodospirillum rubrum; conditions: PBS 0.01 M, pH 7.4, 37 °C, [S]0 = 10 mM
Protein,Km [1],Km [2],Km [3],Km [4]
"EcA; E. coli L-ASNase (Veropharm) (Escherichia coli K-12) (protein, commercial native enzyme (Veropharm), unconjugated; monomer 37 kDa, 348 residues as printed (precursor length); tetramer) LPNITILATGGTIAGGGDSATKSNYTVGKVGVENLVNAVPQLKDIANVKGEQVVNIGSQDMNDNVWLTLAKKINTDCDKTDGFVITHGTDTMEETAYFLDLTVKCDKPVVMVGAMRPSTSMSADGPFNLYNAVVTAADKASANRGVLVVMNDTVLDGRDVTKTNTTDVATFKSVNYGPLGYIHNGKIDYQRTPARKHTSDTPFDVSKLNELPKVGIVYNYANASDLPAKALVDAGYDGIVSAGVGNGNLYKSVFDTLATAAKTGTAVVRSSRVPTGATTQDAEVDDAKYGFVASGTLNPQKARVLLQLALTQTKDPQQIQQIFNQY",20 ± 3 µM,20 ± 3 µM,,
"RrA; Rhodospirillum rubrum type I L-ASNase (Rhodospirillum rubrum ATCC 11170) (protein, recombinant, native (unconjugated); 172 residues, monomer 18 kDa; tetramer/dimer) MAVSPSPLRIFTAGGTIDKDYRLEENGLVVGDPFVAEVLKTARLAGAVSIVALSRKDSLDFTEADREAIGRAVGQAVEDHILLTHGTDTMVETARYLGGLPELAGKTVVLSGAMVPGRVGGSDAAFNIGFACAAALMLAPGVYIAMHGKVFDPAKTRKNRGLGRFEPIDDQE",,,4000 ± 300 µM,4000 ± 300 µM
